The text below walks through data of patent US20110151541.

The data set has as its target gelatin.

B1: recombinant stem bromelain (protein)
chain: SRDEPNDPMMKRFEEWMAEYGRVYKDDDEKMRRFQIFKNNVKHIETFNSRNENSYTLGINQFTDMTKSEFVAQYTGVSLPLNIEREPVVSFDDVNISAVPQSIDWRDYGAVNEVKNQNPCGSCWSFAAIATVEGIYKIKTGYLVSLSEQEVLDCAVSYGCKGGWVNKAYDFIISNNGVTTEENYPYLAYQGTCNANSFPNSAYITGYSYVRRNDERSMMYAVSNQPIAALIDASENFQYYNGGVFSGPCGTSLNHAITIIGYGQDSSGTKYWIVRNSWGSSWGEGGYVRMARGVSSSSGVCGIAMAPLFPTLQSGANAEVIKMVSET
B1 gave a Diameter of halo zones (mm), Average of 9 mm; a Diameter of halo zones (mm), Plate 1 of 8 mm; a Diameter of halo zones (mm), Plate 2 of 10 mm; a Diameter of halo zones (mm), Plate 3 of 9 mm.
